# Where “and” joins values, the source holds several entries; their conditions need not be identical. Equal entries are not always repeated.
# Experiments:
# [1] = molecular target: human DLL4 protein (human) (UniProt Q9NR61); experiment: ELISA, maximum over 0.1-100 nM
# [2] = molecular target: human DLL1 protein (human) (UniProt O00548); experiment: ELISA, maximum over 0.1-100 nM
# [3] = molecular target: human DLL3 endogenously expressed on SHP77 and NCI-H82 cells (human) (UniProt Q9NYJ7); experiment: FACS SHP77 cells, 4 nM
# [4] = molecular target: human DLL3 endogenously expressed on SHP77 and NCI-H82 cells (human) (UniProt Q9NYJ7); experiment: FACS SHP77 cells, 0.00128 nM
# [5] = molecular target: monkey DLL3 on CHO K1-cyno DLL3 cells (cynomolgus monkey DLL3 extracellular segment joined to EpCAM transmembrane and intracellular regions) (cynomolgus monkey); experiment: FACS, CHO K1-cyno DLL3 cells, 100 nM antibody
# [6] = molecular target: monkey DLL3 on CHO K1-cyno DLL3 cells (cynomolgus monkey DLL3 extracellular segment joined to EpCAM transmembrane and intracellular regions) (cynomolgus monkey); experiment: FACS, CHO K1-cyno DLL3 cells, 20 nM antibody
# [7] = molecular target: human DLL3 endogenously expressed on SHP77 and NCI-H82 cells (human) (UniProt Q9NYJ7); experiment: FACS SHP77 cells, 100 nM
# [8] = molecular target: human DLL3 endogenously expressed on SHP77 and NCI-H82 cells (human) (UniProt Q9NYJ7); experiment: FACS SHP77 cells, 0.16 nM
# [9] = molecular target: monkey DLL3 on CHO K1-cyno DLL3 cells (cynomolgus monkey DLL3 extracellular segment joined to EpCAM transmembrane and intracellular regions) (cynomolgus monkey); experiment: FACS, CHO K1-cyno DLL3 cells, 0.16 nM antibody
# [10] = molecular target: human DLL3 endogenously expressed on SHP77 and NCI-H82 cells (human) (UniProt Q9NYJ7); experiment: FACS SHP77 cells, 20 nM
# [11] = molecular target: monkey DLL3 on CHO K1-cyno DLL3 cells (cynomolgus monkey DLL3 extracellular segment joined to EpCAM transmembrane and intracellular regions) (cynomolgus monkey); experiment: FACS, CHO K1-cyno DLL3 cells, 0.0064 nM antibody
# [12] = molecular target: monkey DLL3 on CHO K1-cyno DLL3 cells (cynomolgus monkey DLL3 extracellular segment joined to EpCAM transmembrane and intracellular regions) (cynomolgus monkey); experiment: FACS, CHO K1-cyno DLL3 cells, 0.00128 nM antibody
# [13] = molecular target: human DLL3 endogenously expressed on SHP77 and NCI-H82 cells (human) (UniProt Q9NYJ7); experiment: FACS SHP77 cells, 0.0064 nM
# [14] = molecular target: human DLL3 endogenously expressed on SHP77 and NCI-H82 cells (human) (UniProt Q9NYJ7); experiment: FACS SHP77 cells, 0.032 nM
# [15] = molecular target: monkey DLL3 on CHO K1-cyno DLL3 cells (cynomolgus monkey DLL3 extracellular segment joined to EpCAM transmembrane and intracellular regions) (cynomolgus monkey); experiment: FACS, CHO K1-cyno DLL3 cells, 4 nM antibody
# [16] = molecular target: monkey DLL3 on CHO K1-cyno DLL3 cells (cynomolgus monkey DLL3 extracellular segment joined to EpCAM transmembrane and intracellular regions) (cynomolgus monkey); experiment: FACS, CHO K1-cyno DLL3 cells, 0.8 nM antibody
# [17] = molecular target: monkey DLL3 on CHO K1-cyno DLL3 cells (cynomolgus monkey DLL3 extracellular segment joined to EpCAM transmembrane and intracellular regions) (cynomolgus monkey); experiment: FACS, CHO K1-cyno DLL3 cells, 0.032 nM antibody
# [18] = molecular target: human DLL3 endogenously expressed on SHP77 and NCI-H82 cells (human) (UniProt Q9NYJ7); experiment: FACS SHP77 cells, 0.8 nM
# human DLL1 protein (human), sequence (O00548 18-540 limits assumed): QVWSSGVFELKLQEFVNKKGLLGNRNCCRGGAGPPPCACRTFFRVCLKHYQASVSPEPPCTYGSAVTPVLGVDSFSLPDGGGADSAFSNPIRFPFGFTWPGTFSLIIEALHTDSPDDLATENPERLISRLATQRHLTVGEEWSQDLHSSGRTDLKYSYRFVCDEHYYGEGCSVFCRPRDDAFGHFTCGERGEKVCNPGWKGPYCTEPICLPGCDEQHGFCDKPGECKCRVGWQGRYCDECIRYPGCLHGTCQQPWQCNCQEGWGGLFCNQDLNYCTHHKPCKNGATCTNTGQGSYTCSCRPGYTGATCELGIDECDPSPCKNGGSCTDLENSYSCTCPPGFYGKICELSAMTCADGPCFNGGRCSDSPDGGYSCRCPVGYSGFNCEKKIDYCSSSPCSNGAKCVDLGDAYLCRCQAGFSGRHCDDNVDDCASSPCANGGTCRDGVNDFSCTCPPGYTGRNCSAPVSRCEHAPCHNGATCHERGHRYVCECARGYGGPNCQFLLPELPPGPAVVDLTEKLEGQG
# human DLL4 protein (human), sequence (Q9NR61 27-524 limits assumed): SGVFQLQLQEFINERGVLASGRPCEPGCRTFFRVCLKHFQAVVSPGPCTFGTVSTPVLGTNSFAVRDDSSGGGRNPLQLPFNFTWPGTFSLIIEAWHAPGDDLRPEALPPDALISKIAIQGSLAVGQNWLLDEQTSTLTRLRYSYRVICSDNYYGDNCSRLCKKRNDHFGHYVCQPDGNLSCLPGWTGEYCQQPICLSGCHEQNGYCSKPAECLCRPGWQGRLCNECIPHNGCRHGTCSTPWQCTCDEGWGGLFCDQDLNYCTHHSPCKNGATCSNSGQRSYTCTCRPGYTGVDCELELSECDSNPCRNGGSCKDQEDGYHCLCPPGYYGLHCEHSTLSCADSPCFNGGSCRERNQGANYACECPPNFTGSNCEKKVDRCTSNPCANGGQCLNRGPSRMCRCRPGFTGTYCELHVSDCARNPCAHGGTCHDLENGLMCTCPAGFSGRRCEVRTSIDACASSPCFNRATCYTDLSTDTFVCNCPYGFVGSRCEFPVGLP
# human DLL3 endogenously expressed on SHP77 and NCI-H82 cells (human), sequence (Q9NYJ7 27-618): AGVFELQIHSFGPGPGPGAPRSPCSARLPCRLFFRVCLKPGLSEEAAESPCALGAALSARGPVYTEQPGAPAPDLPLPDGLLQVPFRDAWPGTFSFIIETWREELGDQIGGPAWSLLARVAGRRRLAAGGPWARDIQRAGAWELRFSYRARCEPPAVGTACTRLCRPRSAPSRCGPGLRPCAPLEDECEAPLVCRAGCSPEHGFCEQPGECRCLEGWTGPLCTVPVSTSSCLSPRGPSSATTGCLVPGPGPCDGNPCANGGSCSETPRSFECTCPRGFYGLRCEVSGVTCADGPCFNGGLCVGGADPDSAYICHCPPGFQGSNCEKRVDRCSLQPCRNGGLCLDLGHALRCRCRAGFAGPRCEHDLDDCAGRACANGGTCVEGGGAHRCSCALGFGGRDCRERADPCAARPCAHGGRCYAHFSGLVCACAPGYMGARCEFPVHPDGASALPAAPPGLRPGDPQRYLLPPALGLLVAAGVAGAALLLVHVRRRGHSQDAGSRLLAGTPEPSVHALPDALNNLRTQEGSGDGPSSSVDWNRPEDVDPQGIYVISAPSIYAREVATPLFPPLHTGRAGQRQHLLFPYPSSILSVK
# monkey DLL3 on CHO K1-cyno DLL3 cells (cynomolgus monkey DLL3 extracellular segment joined to EpCAM transmembrane and intracellular regions) (cynomolgus monkey), sequence (chain, as listed by the source limits assumed): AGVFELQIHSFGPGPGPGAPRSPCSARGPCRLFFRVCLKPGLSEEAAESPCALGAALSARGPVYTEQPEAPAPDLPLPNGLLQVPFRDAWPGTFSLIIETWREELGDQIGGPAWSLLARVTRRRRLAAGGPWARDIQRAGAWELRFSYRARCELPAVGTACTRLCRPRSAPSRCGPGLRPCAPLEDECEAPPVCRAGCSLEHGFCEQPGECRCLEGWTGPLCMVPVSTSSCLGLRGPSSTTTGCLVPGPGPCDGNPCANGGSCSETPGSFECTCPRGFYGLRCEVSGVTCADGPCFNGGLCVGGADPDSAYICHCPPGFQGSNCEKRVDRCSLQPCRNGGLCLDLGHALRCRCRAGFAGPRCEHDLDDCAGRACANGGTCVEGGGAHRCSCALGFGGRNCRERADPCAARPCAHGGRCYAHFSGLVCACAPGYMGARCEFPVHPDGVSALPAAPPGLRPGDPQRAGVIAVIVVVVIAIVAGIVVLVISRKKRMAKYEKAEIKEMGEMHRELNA
Emax of OD450 nm binding value [1],Emax of OD450 nm binding value [2],MFI [3],MFI [4],MFI [5],MFI [6],MFI [7],MFI [8],MFI [9],MFI [10],MFI [11],MFI [12],MFI [13],MFI [14],MFI [15],MFI [16],MFI [17],MFI [18],Substance
0.04 OD450 and 0.07 OD450 and 0.05 OD450,0.04 OD450 and 0.05 OD450 and 0.07 OD450,,,,,,,,,,,,,,,,,hIgG1 (antibody)
0.05 OD450,0.05 OD450,476 MFI and 517 MFI,188 MFI and 146 MFI,4930 MFI and 2330 MFI,5010 MFI and 2630 MFI,529 MFI and 628 MFI,432 MFI and 411 MFI,1970 MFI and 700 MFI,500 MFI and 566 MFI,314 MFI and 189 MFI,161 MFI and 185 MFI,235 MFI and 146 MFI,334 MFI and 234 MFI,5040 MFI and 2330 MFI,4510 MFI and 1900 MFI,690 MFI and 299 MFI,465 MFI and 478 MFI,SC16.56 (antibody)
